Test results as given in US6284879A, “Transport associated protein splice variants” (The General Hospital Corporation, priority 1998, dated 2001).
“Also recorded” adds a separate entry of the source.

T1: TAP1/TAP2iso heterodimer (Homo sapiens, UniProt Q03518+Q03519)
T1 construct: expressed in transfected cells
T1 sequence (Q03519 1-653 isoform Q03519-2 L359K/V379I): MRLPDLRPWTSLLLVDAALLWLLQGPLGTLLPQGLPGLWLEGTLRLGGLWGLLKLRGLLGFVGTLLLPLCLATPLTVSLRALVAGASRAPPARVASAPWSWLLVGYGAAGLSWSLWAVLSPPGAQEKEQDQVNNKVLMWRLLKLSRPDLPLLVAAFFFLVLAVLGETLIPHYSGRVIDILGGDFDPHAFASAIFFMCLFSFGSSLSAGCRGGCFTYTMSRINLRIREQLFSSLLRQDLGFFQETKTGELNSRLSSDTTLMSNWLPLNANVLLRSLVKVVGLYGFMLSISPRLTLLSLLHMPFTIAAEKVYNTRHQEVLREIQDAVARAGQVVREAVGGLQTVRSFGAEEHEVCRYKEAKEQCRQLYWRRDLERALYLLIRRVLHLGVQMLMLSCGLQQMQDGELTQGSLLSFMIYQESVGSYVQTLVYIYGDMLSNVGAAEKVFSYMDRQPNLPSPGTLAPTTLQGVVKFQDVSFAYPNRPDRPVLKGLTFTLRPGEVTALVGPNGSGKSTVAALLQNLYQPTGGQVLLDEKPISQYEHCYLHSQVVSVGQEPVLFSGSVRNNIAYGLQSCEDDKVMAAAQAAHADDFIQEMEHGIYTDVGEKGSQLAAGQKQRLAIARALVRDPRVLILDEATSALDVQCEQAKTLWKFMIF
T1 sequence (Q03518 1-748): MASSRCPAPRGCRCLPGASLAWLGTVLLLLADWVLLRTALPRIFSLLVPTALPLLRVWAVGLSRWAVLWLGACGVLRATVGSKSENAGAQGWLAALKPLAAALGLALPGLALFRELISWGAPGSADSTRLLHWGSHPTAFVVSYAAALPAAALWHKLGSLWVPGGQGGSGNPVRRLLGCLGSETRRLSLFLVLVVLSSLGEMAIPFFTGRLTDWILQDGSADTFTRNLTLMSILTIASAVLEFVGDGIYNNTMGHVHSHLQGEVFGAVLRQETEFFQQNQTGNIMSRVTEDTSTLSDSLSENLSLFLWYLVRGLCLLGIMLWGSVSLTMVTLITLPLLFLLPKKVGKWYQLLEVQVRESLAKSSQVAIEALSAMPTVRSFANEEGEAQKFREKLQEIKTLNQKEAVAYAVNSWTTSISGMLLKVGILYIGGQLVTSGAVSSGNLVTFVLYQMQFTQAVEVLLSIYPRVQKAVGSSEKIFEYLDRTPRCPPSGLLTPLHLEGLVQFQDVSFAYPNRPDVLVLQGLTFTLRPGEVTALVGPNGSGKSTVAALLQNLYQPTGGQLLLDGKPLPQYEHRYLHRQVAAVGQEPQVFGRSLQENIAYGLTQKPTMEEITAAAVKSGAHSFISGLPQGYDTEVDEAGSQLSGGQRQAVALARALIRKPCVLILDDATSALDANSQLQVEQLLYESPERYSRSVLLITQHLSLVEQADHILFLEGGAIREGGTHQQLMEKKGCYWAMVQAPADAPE

T2: TAP1/TAP2iso heterodimer (human)
T2 chain 1: T1 sequence (Q03518 1-748)
T2 chain 2: T1 sequence (Q03519 1-653 isoform Q03519-2 L359K/V379I)

T3: TAP1/TAP2 heterodimer (human)
T3 chain 1: T1 sequence (Q03518 1-748)
T3 chain 2: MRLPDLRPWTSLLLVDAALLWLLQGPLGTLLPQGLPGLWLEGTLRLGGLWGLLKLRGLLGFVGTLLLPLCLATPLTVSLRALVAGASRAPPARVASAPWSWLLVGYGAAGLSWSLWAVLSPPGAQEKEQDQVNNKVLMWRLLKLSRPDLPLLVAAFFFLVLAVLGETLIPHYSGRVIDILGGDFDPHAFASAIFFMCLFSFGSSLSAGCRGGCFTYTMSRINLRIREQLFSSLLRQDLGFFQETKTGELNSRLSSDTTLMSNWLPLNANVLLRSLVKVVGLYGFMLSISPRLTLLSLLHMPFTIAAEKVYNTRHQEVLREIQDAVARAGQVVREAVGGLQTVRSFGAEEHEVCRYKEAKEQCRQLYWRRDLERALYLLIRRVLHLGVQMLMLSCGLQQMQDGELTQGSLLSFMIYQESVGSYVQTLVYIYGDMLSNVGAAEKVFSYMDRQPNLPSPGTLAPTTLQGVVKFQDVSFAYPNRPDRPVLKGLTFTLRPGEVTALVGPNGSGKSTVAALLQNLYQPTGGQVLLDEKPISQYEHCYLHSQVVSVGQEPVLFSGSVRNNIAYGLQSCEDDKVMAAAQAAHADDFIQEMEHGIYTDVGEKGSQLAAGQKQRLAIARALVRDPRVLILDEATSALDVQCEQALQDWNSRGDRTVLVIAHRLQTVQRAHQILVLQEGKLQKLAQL

B1: TAP1/TAP2iso: novel TAP heterodimer of TAP1 and splice variant TAP2iso, expressed from transfected cDNAs (protein)
chain 1: T1 sequence (Q03518 1-748)
chain 2: T1 sequence (Q03519 1-653 isoform Q03519-2 L359K/V379I)

Key:
[1] = biological target: T1, TAP1/TAP2iso heterodimer; test: competition with transport of 125I-Peptide RRYQNSTEL in TAP1/TAP2iso transfectants; format: cell-based; conditions: unlabeled competitor peptide; comparison in words
Experimental: (§1) Glycosylated ^125 I Peptide […] (SEQ ID NO: 6), Peptide […] (SEQ ID NO: 7), or Peptide […] (SEQ ID NO: 8) was recovered and measured. The peptide translocation assay was performed essentially as previously described (Neefjes et al., Science, 261:769 (1993); and Momburg et al., J. Exp. Med., 179:1613 (1994)). Briefly, 2.5-5.0×10^6 T2 cell (transfected or untransfected) were washed once with incubation buffer (130 mM KCl, 10 mM NaCl, 1 mM CaC2, 2 mM EDTA, 2 mM MgCl2, 5 mM Hepes, pH 7.3) and permeabilized for 10 minutes at 37° C. with streptolysin O (2 IU/ml) (Wellcome, Beckenham, UK) in 50 μl of incubation buffer. After further addition of 10 μl of 100 mM adenosine triphosphate, 10 μl of ^125 I-labeled peptide (~15 pM), and 30 μl of incubation buffer, cells were incubated for an additional 10 minutes at 37° C. Transport was terminated by the addition of 1 ml of 1% NP-40 detergent, after which nuclei were removed by centrifugation and glycosylated peptides were recovered using concanavalin A-Sepharose (Sigma, St. Louis, Mo.) and quantitated with a gamma counter (LKB-Wallac).
Differential peptide selectivity of the TAP1/TAP2 and TAP1/TAP2iso heterodimers was further investigated by competition experiments with ^125 I-labeled Peptide […] (SEQ ID NO: 6) and various unlabeled peptides: Peptide […] (SEQ ID NO: 6); Peptide […] (SEQ ID NO: 7); Peptide […] (SEQ ID NO: 8); Peptide […] (SEQ ID NO: 9), the S1-24 fragment of human adrenocorticotropic hormone); and Peptide […] (SEQ ID NO: 10), residues 22 to 30 (human insulin B chain). The iodinated 9-mer Peptide […] was translocated in the presence of different concentrations of unlabeled competition peptides. The glycosylated peptides were recovered by Con A-Sepharose and quantitated. […] (self); (6B) competition of ^125 I-Peptide […] with Peptide […]; (6C) competition of ^125 I-Peptide […] with Peptide […]; and (6D) competition of ^125 I-Peptide […] with Peptide […]; and (6E) competition of ^125 I-Peptide […] with Peptide […].

[2] = tested on: T1 cells (naturally co-express both TAP2 and TAP2iso); conditions: in words
[3] = tested on: TAP1/TAP2iso heterodimer (compared with TAP1/TAP2); test: translocation of 125I-labeled peptides into the ER of permeabilized T2 transfectants; format: cell-based, human; conditions: 125I-labeled glycosylated peptide recovered from streptolysin O permeabilized T2 transfectants; comparison in words
Experimental: 10 mM stock solutions of peptides were prepared in dimethyl sulfoxide. Peptides (25 μg) were directly iodinated at unique tyrosine residues with the use of chloramine T (Sigma, St. Louis, Mo.), and free iodine was removed by gel filtration using Sephadex G 10 (Pharmacia) column chromatography.
as §1

[4] = tested on: HLA class I (A2) on T2 cells; test: restoration of surface expression of HLA class I (A2) on transfected T2 cells, flow cytometry; format: cell-based, human
Experimental: Plasmid DNAs were prepared using MAXI-PREP kits (Qiagen). TAP1- and TAP2-deficient T2 cells (donated by P. Cresswell, Howard Hughes Medical Institute, Yale University) (1-2×10^7 cells/ml) were transfected by electroporation with 10 μg of TAP1 and TAP2 or TAP2iso linear plasmid DNA in a 0.4-cm cuvette at 260 V and 960 μF. Subcloning and selection of transfectants were performed by culturing in the presence of hygromycin (250 μg/ml) or histidinol ([…]) for the PREP 4 and PREP8 vectors, respectively.
Immune complexes were detected with fluorescein isothiocyanate-conjugated goat anti-mouse IgG antibodies (Coulter, Hialeah, Fla.) and an Epics Elite flow cytometer (Coulter).
T2 cells were transfected with TAP1 cDNA in combination with TAP2 or TAPiso cDNAs as described above.

[5] = biological target: T2, TAP1/TAP2iso heterodimer; test: cell-based or functional assay
[6] = biological target: T3, TAP1/TAP2 heterodimer; test: cell-based or functional assay

Molecule	inhibition of transport of 125I-Peptide RRYQNSTEL, TAP1/TAP2iso compared with TAP1/TAP2 transfectants [1]	transportation of test peptides (relative IC50) [2]	amount of translocated peptide, TAP1/TAP2iso compared with TAP1/TAP2 [3]	IC50 of inhibition of transport of 125I-labeled Peptide … [5] [nM]	IC50 of inhibition of transport of 125I-labeled Peptide … [6] [nM]	other results
TVDNKTRYE [Peptide TVDNKTRYE]	markedly greater extent in TAP1/TAP2 transfectants	equal efficiency	transported to a greater extent by TAP1/TAP2; also recorded: transported more efficiently in the TAP1/TAP2 transfectant	–	–	–
RGFFYTPKA [Peptide RGFFYTPKA, residues 22 to 30 (human insulin B chain)]	in TAP1/TAP2iso to a greater extent	–	–	–	–	–
IYLGPFSPNVTL [Peptide IYLGPFSPNVTL]	markedly greater extent in TAP1/TAP2iso transfectants	equal efficiency	transported to a greater extent by TAP/TAP2iso; also recorded: four times more efficiently by the TAP1/TAP2iso heterodimer	–	–	–
B1	–	–	–	–	–	Mean fluorescence of HLA class 1 (A2) Mean ± SD ([4]; T2 cells transfected with the named cDNAs, four separate experiments, at least three stable clones): 11.16 ± .50; surface expression of HLA/MHC class I ([4]; T2 cells transfected with the named cDNAs, in words): restored surface expression; surface MHC class I expression, greater than in cells transfected with TAP1-TAP2 cDNAs ([4]; transfected T2 cells): 30%
RRYQNSTEL [unlabeled Peptide RRYQNSTEL]	–	–	–	~150	~150	–
RGFFYTPKA [Peptide RGFFYTPKA]	–	–	–	110	300	–
